Results on three molecules are retold here after CN114106160A (ANYUAN MEDICINE SCIENCE AND TECH SHANGHAI LIMITED COMPANY, dated 2022).

What is called EC50 is the concentration needed to bring the measured effect to its halfway point. The term IC50 denotes the concentration at which inhibition is half-maximal. Higher therefore signals lower potency. The term Kd denotes the equilibrium constant for the complex coming apart. A lower Kd goes with higher affinity. Broadly, the koff is a measure of how fast the partners let go of each other. A word on the kon: it is the second-order rate constant of association. Low values mean slower complex formation, high ones faster complex formation.

The target in experiment [1] is T1, SARS-CoV-2 S1蛋白 (ACRO Biosystems) (SARS-CoV-2, UniProt P0DTC2 16-685).
The target of experiment [2] is T2, 刺突S-鼠Fc融合蛋白(S-mFc) (SARS-CoV-2; mouse, UniProt P0DTC2 14-1213).
T2 construct: domain: S蛋白全长区段
Nature of the experiment: flow cytometry, antibody blocks binding of S-mFc to 293T-ACE2 cells.

Experiment [3] has as its target T1, SARS-CoV-2 S1蛋白 (ACRO Biosystems). Nature of the experiment: BLI, biotinylated SARS-CoV-2 S1 on SA sensor, antibody as analyte, 1:1 model. (In general: In BLI a coated tip is dipped into the sample, and binding shifts an interference pattern.)
In experiment [4] the target is 刺突S-鼠Fc融合蛋白(S-mFc) (SARS-CoV-2; mouse, UniProt P0DTC2 14-1213). The experiment is described as follows: flow cytometry, antibody blocks binding of S-mFc to 293T-ACE2 cells. For orientation: In flow cytometry, cells or beads pass a laser one at a time.
The target of experiment [5] is SARS-CoV-2 S1蛋白 (ACRO Biosystems) (SARS-CoV-2, UniProt P0DTC2 16-685). The experiment is described as follows: BLI, biotinylated SARS-CoV-2 S1 on SA sensor, antibody as analyte, 1:1 model.

Where two headings read alike, the source gives them in different places.

B1: 人源化抗体hS1B-48-2 (antibody, V domains shown)
VH: EVQLVQSGAEVKKPGASVKVSCKASGYTFTNYVMHWVRQAPGKGLEWIGYFNPYNDDAEYNEKFKGKATLTSDKSTSTAYMKLSSLRSEDTAVYYCASLRQETDYWGQGTTLTVSS
VL: DIVLTQSPSSLAVSLGERATINCRASESVDNYGFSLMNWFQQKPGKPPKLLIYEASNQGSGVPARFSGSGSGTDFTLKISRLQAEDVAVYFCHQSKEVPWTFGGGTKLEIKR
In experiment [1], B1 yielded an EC50 of 0.0197 µg/mL. The IC50 in the experiment with 刺突S-鼠Fc融合蛋白(S-mFc) [2] turned out to be 0.00582 µg/mL. In experiment [3], this molecule returned an equilibrium dissociation constant (Kd) of 0.00113 nM, a dissociation rate constant (koff) of 9.81e-07 s⁻¹ and a kon of 867000 M⁻¹ s⁻¹.

B2: 鼠源抗体S1B-48-2 (antibody, V domains shown)
VH: EVQLQQSGPELEKPGASVKMSCKASGYTFTNYVMHWVKQKPGQGLEWIGYFNPYNDDAEYNEKFKGKATLTSDKSSSTAYMVLSSLTSEDSAVYYCACLRQETDYWGQGTTLTVSS
VL: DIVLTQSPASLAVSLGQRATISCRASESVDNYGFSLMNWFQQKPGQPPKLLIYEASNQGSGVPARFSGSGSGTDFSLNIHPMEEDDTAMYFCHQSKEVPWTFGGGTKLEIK
Molecule B2 showed an IC50 with 刺突S-鼠Fc融合蛋白(S-mFc) [4] of 0.0108 µg/mL. In experiment [5], this molecule registered a dissociation constant Kd of 0.0156 nM, a koff of 4.27e-06 s⁻¹ and an association rate constant (kon) of 273000 M⁻¹ s⁻¹.

B3: 鼠源抗体S1B-64-2 (antibody, V domains shown)
VH: EVQLQQSGPELEKPGASVKMSCKASGYTFTNYVMHWVKQKPGQGLEWIGYFNPYNDGTKYNEKFKGKATLTSDKSSSTAYMELSSLTSEDSAVYYCACLRQRADYWGQGTTLTVSS
VL: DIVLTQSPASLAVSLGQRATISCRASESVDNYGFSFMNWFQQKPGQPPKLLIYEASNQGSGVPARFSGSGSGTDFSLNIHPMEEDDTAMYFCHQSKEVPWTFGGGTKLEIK
For B3, in experiment [5], the Kd amounted to 0.091 nM, the dissociation rate constant (koff) worked out at 4.43e-05 s⁻¹ and the on-rate constant (kon) was 487000 M⁻¹ s⁻¹.
